{"source": "paper PMC12518824", "about": "(Nature Communications, 2025)", "key": {"[1]": {"molecular_target": "T1, Munc13-4 (full-length human, recombinant) (human, UniProt Q70J99 1-1090)", "T1 sequence (looked up)": "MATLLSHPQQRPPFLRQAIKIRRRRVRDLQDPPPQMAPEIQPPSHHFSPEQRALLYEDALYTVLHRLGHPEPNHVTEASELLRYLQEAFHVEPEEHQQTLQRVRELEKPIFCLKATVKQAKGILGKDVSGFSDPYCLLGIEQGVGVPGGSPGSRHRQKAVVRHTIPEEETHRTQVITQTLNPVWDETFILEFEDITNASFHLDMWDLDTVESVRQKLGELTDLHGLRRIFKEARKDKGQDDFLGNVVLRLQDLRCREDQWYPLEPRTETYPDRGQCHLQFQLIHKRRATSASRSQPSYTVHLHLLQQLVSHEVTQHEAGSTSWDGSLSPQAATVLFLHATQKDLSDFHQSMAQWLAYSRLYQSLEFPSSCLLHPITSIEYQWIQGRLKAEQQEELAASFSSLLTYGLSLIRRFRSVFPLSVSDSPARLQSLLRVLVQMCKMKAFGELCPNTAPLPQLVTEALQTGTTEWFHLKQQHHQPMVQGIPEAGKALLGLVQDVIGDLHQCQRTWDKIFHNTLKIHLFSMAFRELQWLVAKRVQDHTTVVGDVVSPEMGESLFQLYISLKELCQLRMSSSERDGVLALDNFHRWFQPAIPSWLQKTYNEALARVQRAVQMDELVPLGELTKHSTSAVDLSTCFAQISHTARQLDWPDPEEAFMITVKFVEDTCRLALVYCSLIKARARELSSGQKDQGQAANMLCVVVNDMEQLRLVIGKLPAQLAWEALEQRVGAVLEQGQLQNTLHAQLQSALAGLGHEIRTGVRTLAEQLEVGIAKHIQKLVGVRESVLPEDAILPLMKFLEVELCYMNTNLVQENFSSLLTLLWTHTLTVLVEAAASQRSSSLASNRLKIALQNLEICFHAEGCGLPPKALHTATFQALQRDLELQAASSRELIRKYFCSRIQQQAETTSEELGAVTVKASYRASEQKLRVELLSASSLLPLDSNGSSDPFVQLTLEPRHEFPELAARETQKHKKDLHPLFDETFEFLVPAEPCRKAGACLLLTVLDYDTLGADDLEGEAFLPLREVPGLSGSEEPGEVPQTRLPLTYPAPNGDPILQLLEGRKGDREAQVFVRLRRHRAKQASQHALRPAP", "test": "pull-down"}, "[2]": {"molecular_target": "T2, syntaxin-4 ΔTM (residues 1–275) (human, UniProt Q12846 1-275)", "T2 sequence (looked up)": "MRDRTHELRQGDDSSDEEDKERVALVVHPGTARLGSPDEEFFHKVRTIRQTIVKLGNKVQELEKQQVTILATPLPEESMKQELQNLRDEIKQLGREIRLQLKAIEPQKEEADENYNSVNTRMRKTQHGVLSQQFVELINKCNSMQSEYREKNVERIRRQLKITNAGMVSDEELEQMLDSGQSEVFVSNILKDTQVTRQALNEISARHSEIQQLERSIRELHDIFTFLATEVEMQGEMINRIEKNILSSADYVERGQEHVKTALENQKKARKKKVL", "test": "FRET or BRET"}}, "data": [{"binder": "GST-Rab27a (full-length) (natural protein, human, UniProt P51159 1-221, looked up) MSDGDYDYLIKFLALGDSGVGKTSVLYQYTDGKFNSKFITTVGIDFREKRVVYRASGPDGATGRGQRIHLQLWDTAGQERFRSLTTAFFRDAMGFLLLFDLTNEQSFLNVRNWISQLQMHAYCENPDIVLCGNKSDLEDQRVVKEEEAIALAEKYGIPYFETSAANGTNISQAIEMLLDLIMKRMERCVDKSWIPEGVVRSNGHASTDQLSEEKEKGACGC", "values": [{"measurement": "binding result", "setting": "[1]", "result": "binds"}]}, {"binder": "GST-VAMP-7 SNARE motif (residues 123–187) (domain or fragment, human, UniProt P51809 123-187, looked up) LDKVMETQAQVDELKGIMVRNIDLVAQRGERLELLIDKTENLVDSSVTFKTTSRNLARAMCMKNL", "values": [{"measurement": "binding result", "setting": "[1]", "result": "binds"}]}, {"binder": "VAMP-7 SNARE motif (residues 123–187, A131C) labeled with BODIPY FL (domain or fragment, human, UniProt P51809 123-187, looked up) LDKVMETQC(BODIPY FL)QVDELKGIMVRNIDLVAQRGERLELLIDKTENLVDSSVTFKTTSRNLARAMCMKNL", "values": [{"measurement": "binding result", "setting": "[2]", "result": "binds"}]}]}
